Measurements reported in patent US20240093191A1, “COMPOSITIONS AND METHODS FOR TREATING DISEASE ASSOCIATED WITH DUX4 OVEREXPRESSION” (RESEARCH INSTITUTE AT NATIONWIDE CHILDREN'S HOSPITAL, priority 2021, published 2024).

What was measured:
Assay type in all cases: cell-based, human
DUX4 protein = experiment: Western blot of V5-tagged DUX4 protein in co-transfected HEK293 cells; details: CMV.DUX4-FL/CMV.eGFP, HEK293, molar ratio 1 to 3, eGFP normalizer, relative to U6-milacZ, N = 3-8
mir-675-5p [1] = experiment: TaqMan QRT-PCR of mature mir-675-5p from transfected constructs in HEK293 cells; details: HEK293, 24 h post-transfection; for mir-675-5p levels compared to U6.mir-675: 23 mer mature mir-675-5p
Source text: (§1) RNA Extraction. RNA from HEK293 cells was extracted for Northern blot assay and QPCR. The miRVANA miRNA isolation kit (ThermoFisher Scientific) was used according to manufacturer's directions to extract total RNA encompassing small RNAs, such as miRNAs. To extract RNA from C57BL/6 skeletal muscles, cryopreserved muscles were crushed under suboptimal temperatures using liquid nitrogen and using mortar and pestle. Crushed muscles were then lysed using […] of miRVANA miRNA isolation kit lysis buffer, a TissueLyser and 1.0 mm zirconia beads (Biospec). Muscle was homogenized at 30 Hz for 30 sec with 10 sec rest. This was repeated 3 times.
(§2) TaqMan Gene Expression Assay. QRT-PCR was carried out to quantify the expression of pri-mir-675, mir-675-5p and mi405 using TaqMan probes (ThermoFisher Scientific). Experiments were started by eliminating genomic DNA from the RNA preparations, and then cDNA was generated using the High-Capacity cDNA Reverse Transcription Kit (Applied Biosystems) following manufacturer's instructions. Within the same cDNA reaction, 1×RT random hexamer primers were used to generate the cDNA for RPL13A, used as a reference gene, and for pri-mir-675. To generate the cDNA for mir-675, the RT mir-675 reverse primer provided by ThermoFisher Scientific was used. For mi405, the mi405 qPCR protocol was done as it was previously described [Wallace et al., Mol. Ther. Methods Clin. Dev. 8: 121-30 (2018)]. To quantify mir-675 and mi405 levels, RNA was extracted using the total RNA protocol for the mirVana miRNA Isolation Kit (Ambion) from HEK293 cells. cDNA was generated using the High-Capacity cDNA Reverse Transcription Kit (Applied Biosystems) using a mix of random hexamer primers and specific reverse primer for pri-mir-675 and mir-675-5p. For mi405, 200 nM of the stem-loop forming primer (5′-[…]-3′) (SEQ ID NO: 144) was also used for the RT step. A custom TaqMan assay (Applied Biosystems) including 1.5 μM of Forward primer (5′-[…]-3′) (SEQ ID NO: 145), 0.7 μM of Reverse primer (5′-GTGCAGGGTCCGAGGT-3′) (SEQ ID NO: 146), and 0.2 μM of mi405 probe (5′-6FAM-ATACGACGTCCAGGAT-3′) (SEQ ID NO: 147) was then run using the CFX Connect Real Time system apparatus (Bio-Rad). RPL13A (Mm02526700_g1; Applied Biosystems) served as the reference gene. The TaqMan gene expression assay consisted of using the TaqMan Gene Expression Master mix and TaqMan probes purchased from ThermoFisher Scientific. 1× of probe was mixed with 1× of the TaqMan Gene Expression Master mix (ThermoFisher Scientific), and with 20 ng of cDNA. The mir-675- and mi405-specific primers and probes were designed to quantify only the mir-675-5p and mi405 mature sequence (see TaqMan Gene Expression Master mix protocol).

pri-mir-675 = experiment: TaqMan QRT-PCR of pri-mir-675 from transfected constructs in HEK293 cells; details: 24 h post-transfection
Source text: as §1, §2

mir-675-5p [2] = experiment: ddPCR of all mature mir-675-5p sequences (TaqMan Advanced miRNA cDNA synthesis) in HEK293 cells

B1: U6.mir-675-2.3.1: mir-675 construct with modified 5' and 3' flanking sequences (nucleic acid)
DNA: TCTAGAGATCCGACGCCGCCATCTCTAGGCCCGCGCCGGCCCCCTCGCACAGACTTGTGGGAGAAGCTCGGCTACTCCCCTGCCCCGGTTAATTTGCATATAATATTTCCTAGTAACTATAGAGGCTTAATGTGCGATAAAAGACAGATAATCTGTTCTTTTTAATACTAGCTACATTTTACATGATAGGCTTGGATTTCTATAAGAGATACAAATACTAAATTATTATTTTAAAAAACAGCACAAAAGGAAACTCACCCTAACTGTAAAGTAATTGTGTGTTTTGAGACTATAAATATCCCTTGGAGAAAAGCCTTGTTTGAATCACACTGCCCCAGGGTCTGGTGCGGAGAGGGCCCACAGTGGACTTGGTGACGCTGTATGCCCTCACCGCTCAGCCCCTGGGGATAACTCCTAATCACACTTTTTT
Average inhibition efficiency (%) of DUX4 protein levels (DUX4 protein): 58 ± 8 (N = 3) %
mir-675-5p levels compared to U6.mir-675 (mir-675-5p [1]): 241±29%
pri-mir-675 levels compared to U6.mir-675 (pri-mir-675): 274±49%
fold change of all mature mir-675-5p sequences compared to U6.mir-675 (mir-675-5p [2]): 187±40%

B2: U6.mir-675H: mir-675 construct with modified flanking sequences and UA dinucleotide (nucleic acid)
DNA: TCTAGAGATCCGACGCCGCCATCTCTAGGCCCGCGCCGGCCCCCTCGCACAGACTTGTGGGAGAAGCTCGGCTACTCCCCTGCCCCGGTTAATTTGCATATAATATTTCCTAGTAACTATAGAGGCTTAATGTGCGATAAAAGACAGATAATCTGTTCTTTTTAATACTAGCTACATTTTACATGATAGGCTTGGATTTCTATAAGAGATACAAATACTAAATTATTATTTTAAAAAACAGCACAAAAGGAAACTCACCCTAACTGTAAAGTAATTGTGTGTTTTGAGACTATAAATATCCCTTGGAGAAAAGCCTTGTTTGACCGTTTAAACCCCAGGGTCTGGTGCGGAGAGGGCCCACAGTGGACTTGGTGACGCTGTATGCCCTCACCGCTCAGCCCCTGGGGCGCACGCCAGTTTTTT
Average inhibition efficiency (%) of DUX4 protein levels (DUX4 protein): 89±6%
Average inhibition efficiency (%) of DUX4 protein levels (DUX4 protein; listed as U6-mir-675H): 89 ± 6 (N = 3) %
mir-675-5p levels compared to U6.mir-675 (mir-675-5p [1]): 774±93%
ratio of mir-675-5p/pri-mir-675 compared to U6.mir-675 (mir-675-5p [1]): 303±57%
pri-mir-675 levels compared to U6.mir-675 (pri-mir-675): 256±37%
fold change of all mature mir-675-5p sequences compared to U6.mir-675 (mir-675-5p [2]): 201±38%
